± gives the uncertainty stated by the source.
Test: self-splicing fitness, log relative to wild type (ln ratio); higher = more splicing; Tetrahymena group I intron in knt gene, E. coli kanamycin selection, DiMSum; sequences stand for … in CUCUCU…GGAGGGAAAAGUUAUCAGGCAUGCACCUGGUAGCUAGUCUUUAAACCAAUAGAUUGCAUCGGUUUAAAAGGCAAGACCGUCAAAUUGCGGGAAAGGGGUCAACAGCCGUUCAGUACCAAGUCUCAGGGGAAACUUUGAGAUGGCCUUGCAAAGGGUAUGGUAAUAAGCUGACGGACAUGGUCCUAACCACGCAGCCAAGUCCUAAGUCAACAGAUCUUCUGUUGAUAUGGAUGCAGUUCACAGACUAAAUGUCGGUCGGGGAAGAUGUAUUCUUCUCAUAAGAUAUAGUCGGACCUCUCCUUAAUGGGAGCUAGCGGAUGAAGUGAUGCAACACUGGAGCCGCUGGGAACUAAUUUGUAUGCGAAAGUAUAUUGAUUAGUUUUGGAGUACUCGUGGUCG
Outline: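 Colonies from six replicate transformations of E. coli BL21(DE3) were pooled and amplicon-sequenced on an Illumina HiSeq 2500. The library placed an intron with all eight P1ex-region nucleotides randomised inside the knt kanamycin-resistance gene on pET-22b(+), and cells grew overnight at 37°C or 30°C on LB agar with or without 25 μg/mL kanamycin (plus 100 μg/mL carbenicillin, 50 μM IPTG, 0.2% rhamnose). Fitness is the DiMSum error-weighted combination of wild-type-normalised replicate fold changes, kanamycin versus none.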

| Sequence | self-splicing fitness (ln) (30 °C) | self-splicing fitness (ln) (37 °C) |
| --- | --- | --- |
| GGACAGCAAUAUUACGACUA | 0.148 ± 0.12 | -0.612 ± 0.12 |
| CGAAAGCAAUAUUACGGUCG | -2.88 ± 0.15 | -2.19 ± 0.16 |
| GUUAAGCAAUAUUACGUAGA | -3.06 ± 0.16 | -0.537 ± 0.12 |
| ACAAAGCAAUAUUACGAGGC | -2.57 ± 0.16 | -1.59 ± 0.34 |
| UAUGAGCAAUAUUACGUUCU | -3.57 ± 0.29 | -2.67 ± 0.34 |
| ACUCAGCAAUAUUACGACGG | -0.71 ± 0.072 | 0.0441 ± 0.12 |
| AAGUAGCAAUAUUACGUCUA | -0.618 ± 0.09 | 0.263 ± 0.1 |
| UGGAAGCAAUAUUACGUGGG | -2.89 ± 0.13 | -2.53 ± 0.18 |
| CAACAGCAAUAUUACGGAUC | -3.08 ± 0.12 | -1.89 ± 0.12 |
| GCCCAGCAAUAUUACGGCAC | -1.45 ± 0.067 | -0.0437 ± 0.094 |
| UGAGAGCAAUAUUACGGCCG | -3.57 ± 0.43 | -1.38 ± 0.25 |
| UGAUAGCAAUAUUACGGUGC | -2.98 ± 0.35 | – |
| AGUCAGCAAUAUUACGUACC | -0.711 ± 0.15 | 0.605 ± 0.21 |
| GGCAAGCAAUAUUACGCCUA | -1.04 ± 0.14 | -1.19 ± 0.13 |
| ACUCAGCAAUAUUACGAGUA | -2.23 ± 0.12 | -1.1 ± 0.1 |
| UUUCAGCAAUAUUACGACGA | -0.00347 ± 0.1 | 0.236 ± 0.12 |
| GGUAAGCAAUAUUACGUGUU | -1.4 ± 0.075 | -0.901 ± 0.083 |
| UCAAAGCAAUAUUACGUCUG | -1.05 ± 0.076 | -0.306 ± 0.087 |
| UCACAGCAAUAUUACGGAGU | -4.75 ± 0.33 | -3.4 ± 0.23 |
| UGACAGCAAUAUUACGUGCU | -4.32 ± 0.24 | -1.04 ± 0.11 |
| UACAAGCAAUAUUACGUGAC | -3.89 ± 0.18 | -1.85 ± 0.1 |
| GUUAAGCAAUAUUACGGAGC | -3.58 ± 0.33 | -2.55 ± 0.27 |
| CCUAAGCAAUAUUACGACUU | -4.37 ± 0.17 | -2.4 ± 0.13 |
| GGGCAGCAAUAUUACGCAUA | -1 ± 0.092 | 0.38 ± 0.13 |
| GUCAAGCAAUAUUACGAUAC | -3.1 ± 0.14 | -1.16 ± 0.09 |

| Sequence | self-splicing fitness (ln) (30 °C) | self-splicing fitness (ln) (37 °C) |
| --- | --- | --- |
| ACUUAGCAAUAUUACGGUGG | -3.72 ± 0.3 | – |
| CAACAGCAAUAUUACGACUG | -0.232 ± 0.052 | 0.0876 ± 0.072 |
| GACCAGCAAUAUUACGUUUC | -0.69 ± 0.065 | -0.568 ± 0.083 |
| UCAGAGCAAUAUUACGUCUA | -3.04 ± 0.29 | -2.35 ± 0.3 |
| CGGUAGCAAUAUUACGAACC | – | -1.2 ± 0.31 |
| ACAAAGCAAUAUUACGUCGU | -2.74 ± 0.093 | -2.05 ± 0.12 |
| UACCAGCAAUAUUACGCGGU | -4.05 ± 0.17 | -3.47 ± 0.2 |
| CGCCAGCAAUAUUACGAGUC | -3.11 ± 0.28 | -1.56 ± 0.24 |
| AACCAGCAAUAUUACGCAGA | -1.76 ± 0.11 | -1.37 ± 0.11 |
| UCUCAGCAAUAUUACGCAAA | -3.55 ± 0.4 | -1.59 ± 0.21 |
| CUUGAGCAAUAUUACGAGAG | – | -1.44 ± 0.24 |
| ACGUAGCAAUAUUACGGGGA | -1.93 ± 0.1 | -1.83 ± 0.099 |
| AUAGAGCAAUAUUACGAUAU | -0.196 ± 0.065 | 1.04 ± 0.082 |
| GUAAAGCAAUAUUACGGCUA | 0.4 ± 0.052 | 0.518 ± 0.075 |
| CGCGAGCAAUAUUACGGUUA | -2.88 ± 0.26 | -0.646 ± 0.18 |
| CGACAGCAAUAUUACGACCU | -1.56 ± 0.099 | 0.317 ± 0.11 |
| CUAAAGCAAUAUUACGGCGA | -3.59 ± 0.25 | -1.96 ± 0.19 |
| CCACAGCAAUAUUACGAGGC | -3.21 ± 0.14 | -2.37 ± 0.21 |
| CUUAAGCAAUAUUACGGCAA | -2.7 ± 0.42 | -2.57 ± 0.38 |
| CCGUAGCAAUAUUACGGACG | -1.88 ± 0.26 | – |
| AAUAAGCAAUAUUACGGGCC | -2.8 ± 0.39 | -2.21 ± 0.31 |
| GACGAGCAAUAUUACGAAAG | -3.59 ± 0.43 | -1.53 ± 0.37 |
| GCCCAGCAAUAUUACGUCGC | -1.66 ± 0.095 | -0.355 ± 0.092 |
| GAUGAGCAAUAUUACGUACA | -2.09 ± 0.16 | -0.48 ± 0.13 |
